The supplement of paper PMC7125110
± gives the standard error. For part of these data: Variants at the floor of the assay were thinned out.

B1: glmS ribozyme (parent)
chain: AUAAAAGCGCCAGAACUACAGAAAUGUAGUUGACGAGGAGGAGGUUUAUCGAAUUUUCGGCGGAUGCCUCCAAA

Experiments:
Details in all cases: with glucosamine-6-phosphate
[1] = variants of: B1; assay: kcat; higher = faster cleavage; RNA array
Summary of the method: (§1)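 Weighted Michaelis–Menten fits across concentrations supplied kcat and KM, based on kobs from one- or two-exponential decay fits to normalised per-tile medians. The data came from barcoded ribozyme variants transcribed in situ by E. coli RNA polymerase on sequenced MiSeq chips and tracked at 37 °C by a hybridised Cy3 probe. Glucosamine-6-phosphate (40 μM to 10 mM) in HEPES/KCl/Mg(OAc)2 buffer was flowed in.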

[2] = variants of: B1; assay: KM; higher = weaker cofactor use; RNA array
Summary of the method: as §1

[3] = variants of: B1; assay: self-cleavage kobs at 160 uM GlcN6P; higher = faster cleavage; RNA array
Summary of the method: as §1

[4] = variants of: B1; assay: self-cleavage kobs at 640 uM GlcN6P; higher = faster cleavage; RNA array
Summary of the method: as §1

[5] = variants of: B1; assay: self-cleavage kobs at 2500 uM GlcN6P; higher = faster cleavage; RNA array
Summary of the method: as §1

[6] = variants of: B1; assay: self-cleavage kobs at 10000 uM GlcN6P; higher = faster cleavage; RNA array
Summary of the method: as §1

[7] = variants of: B1; assay: self-cleavage kobs at 40 uM GlcN6P; higher = faster cleavage; RNA array
Summary of the method: as §1

Row | Variant | kcat [1] | KM [2] | self-cleavage kobs at 160 uM GlcN6P [3] | self-cleavage kobs at 640 uM GlcN6P [4] | self-cleavage kobs at 2500 uM GlcN6P [5] | self-cleavage kobs at 10000 uM GlcN6P [6] | self-cleavage kobs at 40 uM GlcN6P [7]
1 | U31G G66U | 0.000571 ± 6e-05 s⁻¹ | 2410 ± 400 µM | 2.77e-05 ± 1e-05 s⁻¹ | 0.000126 ± 1.5e-05 s⁻¹ | 0.00029 ± 4.4e-05 s⁻¹ | 0.000452 ± 8e-05 s⁻¹ | 
2 | C16G A48U | 0.000805 ± 0.0004 s⁻¹ |  | < 1e-05 s⁻¹ |  |  | 4.45e-05 ± 9.8e-06 s⁻¹ | < 1e-05 s⁻¹
3 | U56C C71U | 0.000531 ± 7.9e-05 s⁻¹ | 1380 ± 590 µM |  | 0.000219 ± 3.6e-05 s⁻¹ | 0.000287 ± 5.6e-05 s⁻¹ | 0.000477 ± 4.5e-05 s⁻¹ | 
4 | G29C G40U | 0.000193 ± 6.2e-06 s⁻¹ | 1880 ± 150 µM |  | 5.1e-05 ± 8.7e-06 s⁻¹ | 0.000106 ± 1.3e-05 s⁻¹ | 0.000165 ± 1.5e-05 s⁻¹ | 
5 | A12U U65A | 0.0089 ± 0.0024 s⁻¹ | 2460 ± 840 µM | 0.000483 ± 5.8e-05 s⁻¹ | 0.00176 ± 0.00027 s⁻¹ | 0.00391 ± 0.00071 s⁻¹ | 0.00799 ± 0.0012 s⁻¹ | 0.000192 ± 2.4e-05 s⁻¹
6 | U45A A64U | 0.000543 ± 3.2e-05 s⁻¹ | 2140 ± 230 µM |  | 0.00013 ± 2.1e-05 s⁻¹ | 0.00029 ± 4.4e-05 s⁻¹ | 0.000447 ± 7.9e-05 s⁻¹ | 
7 | A53C | 0.0162 ± 0.0036 s⁻¹ | 2870 ± 790 µM | 0.000713 ± 2.4e-05 s⁻¹ | 0.00273 ± 6.9e-05 s⁻¹ | 0.00834 ± 0.0003 s⁻¹ | 0.0126 ± 0.00041 s⁻¹ | 0.000261 ± 5.6e-06 s⁻¹
8 | G40U G41C | 9.58e-05 ± 2.6e-05 s⁻¹ |  | < 1e-05 s⁻¹ |  | 8.94e-05 ± 1.2e-05 s⁻¹ | 7.67e-05 ± 1.2e-05 s⁻¹ | 
9 | A48U U57C U69G C70U | < 1e-05 s⁻¹ |  |  |  |  |  | 
10 | C70U C71U | 0.00193 ± 0.00073 s⁻¹ | 4150 ± 1900 µM | 8.1e-05 ± 8.1e-06 s⁻¹ | 0.000229 ± 1.8e-05 s⁻¹ | 0.000753 ± 0.00013 s⁻¹ | 0.00146 ± 0.00021 s⁻¹ | 3.19e-05 ± 5.6e-06 s⁻¹
11 | A42G C71G | 0.00124 ± 0.0003 s⁻¹ | 510 ± 230 µM | 0.000264 ± 4.3e-05 s⁻¹ | 0.000668 ± 8.8e-05 s⁻¹ | 0.000941 ± 0.00016 s⁻¹ | 0.00158 ± 0.0003 s⁻¹ | 0.000167 ± 3.5e-05 s⁻¹
12 | U47C C71A | 0.00134 ± 0.00043 s⁻¹ |  | 4.4e-05 ± 1.9e-05 s⁻¹ | 0.000204 ± 4.2e-05 s⁻¹ | 0.000441 ± 0.00011 s⁻¹ | 0.00101 ± 0.00017 s⁻¹ | 4.8e-05 ± 2e-05 s⁻¹
13 | U55A U57A | 0.000112 ± 3.7e-05 s⁻¹ |  |  | 7.83e-05 ± 1.8e-05 s⁻¹ | 8.45e-05 ± 2.7e-05 s⁻¹ |  | 
14 | G32U C67U | 0.00034 ± 4.6e-05 s⁻¹ | 1790 ± 580 µM |  | 0.000104 ± 1.3e-05 s⁻¹ | 0.000166 ± 2.2e-05 s⁻¹ | 0.000303 ± 2.5e-05 s⁻¹ | 
15 | G41A A42U | 0.000123 ± 4e-06 s⁻¹ | 1440 ± 160 µM |  | 3.91e-05 ± 1.2e-05 s⁻¹ | 7.77e-05 ± 1.3e-05 s⁻¹ | 0.000108 ± 1.2e-05 s⁻¹ | 
16 | G51U C67G | < 1e-05 s⁻¹ |  |  |  |  |  | 
17 | G59U C70A | 1.64e-05 ± 5.5e-06 s⁻¹ |  |  |  |  |  | 
18 | G40C U55G | 0.000581 ± 0.00017 s⁻¹ |  | 0.000102 ± 2.2e-05 s⁻¹ | 0.000531 ± 0.0001 s⁻¹ | 0.000712 ± 0.00015 s⁻¹ | 0.00045 ± 8.6e-05 s⁻¹ | 

Row | Variant | kcat [1] | KM [2] | self-cleavage kobs at 160 uM GlcN6P [3] | self-cleavage kobs at 640 uM GlcN6P [4] | self-cleavage kobs at 2500 uM GlcN6P [5] | self-cleavage kobs at 10000 uM GlcN6P [6] | self-cleavage kobs at 40 uM GlcN6P [7]
19 | C58A C70G | 5.06e-05 ± 4.7e-06 s⁻¹ | 91.6 ± 44 µM | 3.59e-05 ± 1.2e-05 s⁻¹ | 3.65e-05 ± 1.3e-05 s⁻¹ | 5.19e-05 ± 1.1e-05 s⁻¹ |  | 
20 | A12G C70U | 0.00188 ± 0.00036 s⁻¹ | 4460 ± 1400 µM | 7.66e-05 ± 6.8e-06 s⁻¹ | 0.00025 ± 2.2e-05 s⁻¹ | 0.00055 ± 4.3e-05 s⁻¹ | 0.00139 ± 7.5e-05 s⁻¹ | 1.71e-05 ± 6.8e-06 s⁻¹
21 | G43A U46A | 1.87e-05 ± 2.1e-06 s⁻¹ |  |  |  |  |  | < 1e-05 s⁻¹
22 | C10U U54G | < 1e-05 s⁻¹ |  |  |  |  |  | < 1e-05 s⁻¹
23 | C11A G51U U65C C68U | 3.35e-05 ± 9e-06 s⁻¹ |  |  |  |  |  | 
24 | A12C G41C | 4.9e-05 ± 9.3e-06 s⁻¹ |  |  |  | 7.35e-05 ± 3.2e-05 s⁻¹ | 4.45e-05 ± 1.1e-05 s⁻¹ | 
25 | A14C C70G | 0.00014 ± 1.4e-05 s⁻¹ | 866 ± 250 µM | 3.24e-05 ± 1.3e-05 s⁻¹ | 5.83e-05 ± 7.3e-06 s⁻¹ | 9.83e-05 ± 1.1e-05 s⁻¹ | 0.000134 ± 1.3e-05 s⁻¹ | 
26 | G37A C67A | 0.000407 ± 4.2e-05 s⁻¹ | 1680 ± 370 µM |  | 0.000119 ± 2e-05 s⁻¹ | 0.000258 ± 4e-05 s⁻¹ | 0.000336 ± 4.8e-05 s⁻¹ | 
27 | U47C | 0.00454 ± 0.0006 s⁻¹ | 1380 ± 250 µM | 0.000428 ± 1.8e-05 s⁻¹ | 0.00142 ± 4.2e-05 s⁻¹ | 0.00412 ± 0.00014 s⁻¹ | 0.00375 ± 9.2e-05 s⁻¹ | 0.000129 ± 2.6e-06 s⁻¹
28 | G40U C67A | 0.000158 ± 6.3e-05 s⁻¹ |  |  | 7.75e-05 ± 1.4e-05 s⁻¹ | 9.78e-05 ± 1.7e-05 s⁻¹ | 0.000218 ± 5.5e-05 s⁻¹ | 
29 | A12G C16A | 3.87e-05 ± 9.1e-07 s⁻¹ | 1330 ± 200 µM |  |  |  | 3.41e-05 ± 6.7e-06 s⁻¹ | < 1e-05 s⁻¹
30 | A14G C61U | 3.27e-05 ± 1.8e-06 s⁻¹ | 592 ± 240 µM |  |  | 2.91e-05 ± 9.3e-06 s⁻¹ | 3.02e-05 ± 6.3e-06 s⁻¹ | 
31 | A48C A53G | 0.000334 ± 1.5e-05 s⁻¹ | 2130 ± 190 µM |  | 7.49e-05 ± 1.2e-05 s⁻¹ | 0.000187 ± 2.9e-05 s⁻¹ | 0.000272 ± 3.6e-05 s⁻¹ | 
32 | G51A C67A | 1.27e-05 ± 2.8e-06 s⁻¹ |  |  |  |  |  | 
33 | C16U A33U C71G | 2.09e-05 ± 7.7e-06 s⁻¹ |  |  |  |  |  | 
34 | G13U C68U | 0.000114 ± 6.9e-06 s⁻¹ | 1630 ± 310 µM |  | 2.76e-05 ± 8.2e-06 s⁻¹ | 7.37e-05 ± 8.5e-06 s⁻¹ | 9.63e-05 ± 8.5e-06 s⁻¹ | 
35 | C68U C71A | 1.12e-05 ± 6.7e-07 s⁻¹ |  |  |  |  |  | 
